From patent WO2007059715A2 (dated 2007)

Biological target: chimeric protein PMEC1-His6 (dengue 2 virus, strain 1409, genotype …)
Test: dot blot, 10 μg protein spotted, antibody 10 μg/ml

B1: monoclonal antibody 4G2 (antibody, V domains shown)
VH: EVQLQQSGPELVKPGTSVKISCKTSGYTFTEYTIHWVKQSHGKSLAWIGGIDPNSGGTNYSPNFKGKATLTVDKSSSTAYMDLRSLSSEDSAVYFCARIYHYDGYFDVWGAGTAVTVSS
VL: NIVMTQSPKSMSMSVGERVTLTCKASENVVTYVSWYQQKPEQSPKLLIYGASNRYTGVPDRFTGSGSATDFTLTISSVQAEDLADYHCGQGYSYPYTFGGGTKLEIK
notes: also called AcM 4G2; Mab 4G2
B1: binds.
